# Laboratory results from paper PMC6470140 (Nature Communications, 2019).
# B1: BDBV223 Fab (Fab, V domains shown)
# VH: QVQLQQWGAGLLKPSETLSLTCAVYGGSFTTTYWNWIRQPPGKGLEWIGEVNYSGNANYNPSLKGRVAISVDTSKNQFSLRLNSVTAADTAIYYCTSRIRSHIAYSWKGDVWGKGTTVTVSS
# VL: EIVMTQSPGTLSLSPGERATLSCRASQSVPRNYIGWFQQKPGQAPRLLIYGASSRAAGFPDRFSGSGSGTDFTLTITRLEPEDFAMYYCHQYDRLPYTFGQGTKLEIK
# Target: synthetic peptide representing residues 620-635 of the BDBV GP2 stalk epitope (Bundibugyo virus)
# Experiment: crystal structure
# Settings: both partners purified
binder,measurement,value
B1,binding result,binds
